{
  "source": "FireProtDB (doi:10.1016/s0167-4838(99)00071-0)",
  "conditions": "Saccharomyces cerevisiae (strain ATCC 204508 / S288c), Thermal, DSC, reversible: yes",
  "key": {"[1]": {"conditions": "pH 4.7, 51.4 °C, sodium acetate 50 mM, structure 1YCC"}, "[2]": {"conditions": "pH 4.7, sodium acetate 50 mM, structure 1YCC"}, "[3]": {"conditions": "pH 6, 57.1 °C, sodium phosphate 100 mM, structure 1YCC"}, "[4]": {"conditions": "pH 6, sodium phosphate 10 mM, structure 1YCC"}, "[5]": {"conditions": "pH 6, sodium phosphate 100 mM, structure 1YCC"}},
  "note": "Values joined by “and” are separate entries in the source; they are usually repeats but may differ in a detail not shown here. Identical values can stand only once.",
  "data": [
    {"substance": "Cytochrome c isoform 1 C108T, P00044", "values": [
      {"measurement": "unfolding enthalpy (calorimetric)", "setting": "[1]", "value": "65 kcal/mol and 68 kcal/mol"},
      {"measurement": "heat capacity change of unfolding", "setting": "[2]", "value": 1.7, "unit": "kcal/mol/K"},
      {"measurement": "unfolding enthalpy (calorimetric)", "setting": "[2]", "value": "69 kcal/mol and 116 kcal/mol"},
      {"measurement": "unfolding enthalpy (van 't Hoff)", "setting": "[2]", "value": "82.8 kcal/mol and 151 kcal/mol"},
      {"measurement": "unfolding enthalpy (calorimetric)", "setting": "[3]", "value": "81 kcal/mol and 75 kcal/mol"},
      {"measurement": "heat capacity change of unfolding", "setting": "[4]", "value": 1.7, "unit": "kcal/mol/K"},
      {"measurement": "unfolding enthalpy (calorimetric)", "setting": "[4]", "value": "86 kcal/mol and 122 kcal/mol"},
      {"measurement": "unfolding enthalpy (van 't Hoff)", "setting": "[4]", "value": "95 kcal/mol and 146 kcal/mol"}
    ]},
    {"substance": "Cytochrome c isoform 1 T102A|C108T, P00044 T102A C108T", "values": [
      {"measurement": "unfolding enthalpy (calorimetric)", "setting": "[1]", "value": "78 kcal/mol and 67 kcal/mol"},
      {"measurement": "heat capacity change of unfolding", "setting": "[2]", "value": 1.8, "unit": "kcal/mol/K"},
      {"measurement": "unfolding enthalpy (calorimetric)", "setting": "[2]", "value": "84 kcal/mol and 121 kcal/mol"},
      {"measurement": "unfolding enthalpy (van 't Hoff)", "setting": "[2]", "value": "118 kcal/mol and 133 kcal/mol"},
      {"measurement": "unfolding enthalpy (calorimetric)", "setting": "[3]", "value": 84, "unit": "kcal/mol"},
      {"measurement": "heat capacity change of unfolding", "setting": "[5]", "value": 1.8, "unit": "kcal/mol/K"},
      {"measurement": "unfolding enthalpy (calorimetric)", "setting": "[5]", "value": "91 kcal/mol and 144 kcal/mol"},
      {"measurement": "unfolding enthalpy (van 't Hoff)", "setting": "[5]", "value": "109 kcal/mol and 144 kcal/mol"}
    ]},
    {"substance": "Cytochrome c isoform 1 T75E|T102A|C108T, P00044 T75E T102A C108T", "values": [
      {"measurement": "unfolding enthalpy (calorimetric)", "setting": "[1]", "value": "75 kcal/mol and 77 kcal/mol"},
      {"measurement": "heat capacity change of unfolding", "setting": "[2]", "value": 1.7, "unit": "kcal/mol/K"},
      {"measurement": "unfolding enthalpy (calorimetric)", "setting": "[2]", "value": "85 kcal/mol and 130 kcal/mol"},
      {"measurement": "unfolding enthalpy (van 't Hoff)", "setting": "[2]", "value": "102 kcal/mol and 169 kcal/mol"},
      {"measurement": "unfolding enthalpy (calorimetric)", "setting": "[3]", "value": "83 kcal/mol and 92 kcal/mol"},
      {"measurement": "heat capacity change of unfolding", "setting": "[5]", "value": 1.7, "unit": "kcal/mol/K"},
      {"measurement": "unfolding enthalpy (calorimetric)", "setting": "[5]", "value": "92 kcal/mol and 143 kcal/mol"},
      {"measurement": "unfolding enthalpy (van 't Hoff)", "setting": "[5]", "value": "120 kcal/mol and 157 kcal/mol"}
    ]},
    {"substance": "Cytochrome c isoform 1 T75E|C108T, P00044 T75E C108T", "values": [
      {"measurement": "unfolding enthalpy (calorimetric)", "setting": "[1]", "value": 80, "unit": "kcal/mol"},
      {"measurement": "heat capacity change of unfolding", "setting": "[2]", "value": 1.5, "unit": "kcal/mol/K"},
      {"measurement": "unfolding enthalpy (calorimetric)", "setting": "[2]", "value": "89 kcal/mol and 125 kcal/mol"},
      {"measurement": "unfolding enthalpy (van 't Hoff)", "setting": "[2]", "value": "97.9 kcal/mol and 138 kcal/mol"},
      {"measurement": "unfolding enthalpy (calorimetric)", "setting": "[3]", "value": "90 kcal/mol and 91 kcal/mol"},
      {"measurement": "Tm", "setting": "[4]", "value": 62.6, "unit": "°C"},
      {"measurement": "heat capacity change of unfolding", "setting": "[4]", "value": 1.5, "unit": "kcal/mol/K"},
      {"measurement": "unfolding enthalpy (calorimetric)", "setting": "[4]", "value": 98, "unit": "kcal/mol"},
      {"measurement": "unfolding enthalpy (van 't Hoff)", "setting": "[4]", "value": 108, "unit": "kcal/mol"},
      {"measurement": "Tm", "setting": "[5]", "value": 86.3, "unit": "°C"},
      {"measurement": "heat capacity change of unfolding", "setting": "[5]", "value": 1.5, "unit": "kcal/mol/K"},
      {"measurement": "unfolding enthalpy (calorimetric)", "setting": "[5]", "value": 135, "unit": "kcal/mol"},
      {"measurement": "unfolding enthalpy (van 't Hoff)", "setting": "[5]", "value": 149, "unit": "kcal/mol"}
    ]},
    {"substance": "Cytochrome c isoform 1 wild type, P00044", "values": [
      {"measurement": "unfolding enthalpy (calorimetric)", "setting": "pH 4.7, 51.4 °C, sodium acetate 50 mM", "value": "42 kcal/mol and 49 kcal/mol"},
      {"measurement": "heat capacity change of unfolding", "setting": "pH 4.7, sodium acetate 50 mM", "value": 1.4, "unit": "kcal/mol/K"},
      {"measurement": "unfolding enthalpy (calorimetric)", "setting": "pH 4.7, sodium acetate 50 mM", "value": 40, "unit": "kcal/mol"},
      {"measurement": "unfolding enthalpy (van 't Hoff)", "setting": "pH 4.7, sodium acetate 50 mM", "value": 52, "unit": "kcal/mol"},
      {"measurement": "unfolding enthalpy (calorimetric)", "setting": "pH 6, 57.1 °C, sodium phosphate 100 mM", "value": "78 kcal/mol and 62 kcal/mol"},
      {"measurement": "Tm", "setting": "pH 6, sodium phosphate 10 mM", "value": 81.4, "unit": "°C"},
      {"measurement": "heat capacity change of unfolding", "setting": "pH 6, sodium phosphate 100 mM", "value": 1.4, "unit": "kcal/mol/K"},
      {"measurement": "unfolding enthalpy (calorimetric)", "setting": "pH 6, sodium phosphate 100 mM", "value": "78 kcal/mol and 98 kcal/mol"},
      {"measurement": "unfolding enthalpy (van 't Hoff)", "setting": "pH 6, sodium phosphate 100 mM", "value": "101 kcal/mol and 127 kcal/mol"}
    ]}
  ]
}
